This is an account of results in paper PMC9605875 (Cell Host & Microbe, 2022).

The experiment concerns the target Wild-type RABV-G, untagged, full length, on transfected Expi293 cells (Rabies virus, Pasteur (PV) ectodomain; …, UniProt P08667, strain). In words: flow cytometry on cells. To be noted: one partner purified. (In general: In flow cytometry, cells or beads pass a laser one at a time.)

B1: 17C7 IgG (antibody, V domains shown)
VH: EVQLVESGGGVVQPGRSLRLSCAASGFTFSTYAMHWVRQAPGKGLEWVAVVSYDGRTKDYADSVKGRFTISRDNSKNTLYLQMNSLRTEDTAVYFCARERFSGAYFDYWGQGTLVTVSS
VL: EIVLTQSPATLSLSPGERATLSCRASQSVSSYLAWYQQKPGQAPRLLIYDASNRATGIPARFSGSGSGTDFTLTISSLEPEDFAVYSCQQRNNWPPTFGGGTKVEIK
notes: IgG1; copies: 2 + 2
For the molecule B1, the binding result is “binds”.

B2: 1112-1 IgG (antibody, V domains shown)
VH: QVQLQQPGAELLKPGTSMKLSCKASGYTFSNYWMHWVKLRPGQGFEWIGEINPFNGGTNFNEKFKSKATLTVDRSSSTAYMQLSSVTSEDSAVYYCTIPLSDYGDWFFAVWGAGTTVTVSS
VL: DIVMTQSHKFMSTSIGDRVSITCKASQDVSTAVAWYRQKPGQSPKLLIYSASYRSTGVPDRFTGSGSGTDFTFTISSVQAEDLAVFYCQQHYSAPLTFGAGTKLELK
notes: copies: 2 + 2
Consider B2, for which the binding result is “binds”.
